Experimental data: paper PMC9637154
Where two headings read alike, the source gives them in different places.

Columns and labels:
[1] = glycan lost
[2] = cell-surface biotinylation, anti-hACE2 western blot; conditions: glycan lost; control: full-length hACE2 wt
[3] = focus reduction neutralization test, Vero E6 cells; conditions: glycan lost; control: shACE2-wt

Substance | other: virus entry into hACE2-expressing cells [1] | other: virus entry into hACE2-expressing cells, fold_change [1] | expression_or_secretion [2] | other: decoy neutralising activity of shACE2, other: FRNT50 [3] | other: decoy neutralising activity of shACE2, other: FRNT50 [1]
angiotensin-converting enzyme 2 (hACE2): N53A | decreases | decreases | no change | – | –
angiotensin-converting enzyme 2 (hACE2): N53A/N90A/N322A | increases | increases | no change | increases | –
angiotensin-converting enzyme 2 (hACE2): N90A | increases | increases | no change | increases | –
angiotensin-converting enzyme 2 (hACE2): N90A/N322A | increases | increases | no change | increases | increases
angiotensin-converting enzyme 2 (hACE2): N90S | increases | – | – | – | –
angiotensin-converting enzyme 2 (hACE2): N90S/N322S | increases | increases | – | – | –
angiotensin-converting enzyme 2 (hACE2): N322A | increases | increases | no change | – | –
angiotensin-converting enzyme 2 (hACE2): N322S | increases | – | – | – | –
